Experimental data as given in PMC8249405 (2021).

B1: Arabidopsis thaliana Formin 1 AtFH1-FH1C (domain or fragment)
chain: RQGLQSQLLSSPSNSHGGQGFLKQLDALRSRSPSSSSSSVCSSPEKASHKSPVTSPKLSSRNSQSLSSSPDRDFSHSLDVSPRISNISPQILQSRVPPPPPPPPPLPLWGRRSQVTTKADTISRPPSLTPPSHPFVIPSENLPVTSSPMETPETVCASEAAEETPKPKLKALHWDKVRASSDREMVWDHLRSSSFKLDEEMIETLFVAKSLNNKPNQSQTTPRCVLPSPNQENRVLDPKKAQNIAILLRALNVTIEEVCEALLEGNADTLGTELLESLLKMAPTKEEERKLKAYNDDSPVKLGHAEKFLKAMLDIPFAFKRVDAMLYVANFESEVEYLKKSFETLEAACEELRNSRMFLKLLEAVLKTGNRMNVGTNRGDAHAFKLDTLLKLVDVKGADGKTTLLHFVVQEIIRAEGTRLSGNNTQTDDIKCRKLGLQVVSSLCSELSNVKKAAAMDSEVLSSYVSKLSQGIAKINEAIQVQSTITEESNSQRFSESMKTFLKRAEEEIIRVQAQESVALSLVKEITEYFHGNSAKEEAHPFRIFLVVRDFLGVVDRVCKEVGMINERTMVSSAHKFPVPVNPMMPQPLPGLVGRRQSSSSSSSSSTSSSDEDEHNSISLVS
B2: Xcc XopR-FL (aa 1-411) (natural protein)
chain: MRLSQLFNSRHRVAPEPHGANPNKTTPLIPGASPQHPLSQAPKSTTSQGASKSHRGMLASARKSLASLRKQLPLTCMGSSPTLETVESPPAHTAAVTPGRTQQQHGTQARVDQRWQPPVPNATDHERVQRPQPQPQQTPPTRQSMSVPPKPARAQQLHGPQRPVDPRMQPPIPERMRRDEGQPPQHDKPASPPVPITPAQSSLPSPRPQPGRQPSLRRLDLQLEEITRQCSDIQKQLFMEDREATPQEQHLLKTRAALIAWRNEVRDSQLEALLVALAPMEDIRAPRTTSSGLAMVQMDAMQHNRREVLKARRKSVDRAALARNYARAQRRLESLKQGDAPKEQIRRLQRMMQGYQNMLALEQIVRSTDDQLERLGAPRLMSGIPTTAEQRRQSFEKERDAHQEAIDNGYY

Experiments:
Xcc XopR-FL (aa 1-411) = molecular target: B2; assay: SPR; bivalent model, koff1
[1] = molecular target: the molecule itself; assay: SPR; bivalent model, koff1

Row | Binder | koff (Xcc XopR-FL (aa 1-411)) [s⁻¹] | koff [1] [s⁻¹]
1 | B1 | 0.0152 | 
2 | B2 |  | 0.27
